Biological target: OM14 assembled in the outer membrane of isolated mitochondria (S. cerevisiae (endogenous in yeast)) (UniProt P38325)
Experiment: co-sedimentation; 10 μg purified yeast ribosomes with 25 μg highly purified mitochondria (OM14^+ or OM14Δ, from NAC-deleted cells), 5 min at room temperature in MA buffer, 10,000 g; Rpl3 in the pellet normalised to Tom20

Sequence of UniProt P38325 (P38325 whole entry): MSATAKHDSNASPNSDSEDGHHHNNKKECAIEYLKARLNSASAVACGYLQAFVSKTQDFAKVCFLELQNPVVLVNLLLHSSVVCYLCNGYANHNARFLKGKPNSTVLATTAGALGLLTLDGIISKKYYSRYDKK

fold ribosomal association, mitochondria with OM14 over OM14Δ mitochondria: > 2 fold
Substance: yeast cytosolic ribosomes (from UniProt P14126 1-387) (complex)
